The results in this text go back to publication PMC6934413.

Series [1] has as its target Smc-HaloTag with J-Cys (S152C) (Bacillus subtilis) (UniProt P51834). The series is described as follows: cross-linking.
Series [2] deals with T1, SmcH-CC100 (Smc hinge with adjacent coiled coil) (Bacillus subtilis, UniProt P51834 400-776).
T1 sequence: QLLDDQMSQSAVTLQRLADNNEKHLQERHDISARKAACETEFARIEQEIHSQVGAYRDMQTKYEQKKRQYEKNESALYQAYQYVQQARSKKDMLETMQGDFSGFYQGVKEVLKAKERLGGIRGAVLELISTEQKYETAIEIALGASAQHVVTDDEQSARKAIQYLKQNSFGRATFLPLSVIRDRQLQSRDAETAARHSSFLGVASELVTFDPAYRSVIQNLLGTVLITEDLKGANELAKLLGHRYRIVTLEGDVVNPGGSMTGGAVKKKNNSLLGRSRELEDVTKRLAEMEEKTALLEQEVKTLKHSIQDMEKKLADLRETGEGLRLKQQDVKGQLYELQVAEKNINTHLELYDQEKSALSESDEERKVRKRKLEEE
The series is described as follows: fluorescence anisotropy.

In the next series the target is T2, SmcHd(EQ,3A-hd);ScpA-N (Bacillus subtilis;Bacillus subtilis, UniProt P51834;P51834;P35154 1-219;983-1186;1-86, K60A;R120A;K122A;EQ|).
T2 sequence 1: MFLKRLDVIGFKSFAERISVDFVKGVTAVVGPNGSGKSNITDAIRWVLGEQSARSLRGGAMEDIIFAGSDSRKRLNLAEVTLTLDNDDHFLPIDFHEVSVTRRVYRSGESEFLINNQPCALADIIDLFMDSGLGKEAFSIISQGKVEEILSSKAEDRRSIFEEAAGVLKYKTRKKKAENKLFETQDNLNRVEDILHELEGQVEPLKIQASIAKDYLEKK
T2 sequence 2: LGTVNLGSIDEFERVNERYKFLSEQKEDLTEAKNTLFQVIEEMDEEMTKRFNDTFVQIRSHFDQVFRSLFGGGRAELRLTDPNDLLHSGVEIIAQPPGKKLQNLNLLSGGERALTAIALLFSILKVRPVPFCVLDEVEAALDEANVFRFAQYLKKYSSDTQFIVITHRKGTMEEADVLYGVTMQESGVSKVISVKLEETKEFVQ
T2 sequence 3: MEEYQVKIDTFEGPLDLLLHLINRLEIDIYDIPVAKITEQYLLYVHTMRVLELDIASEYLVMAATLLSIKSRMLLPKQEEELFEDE
Nature of the series: fluorescence anisotropy. In general terms: In fluorescence polarisation assays a small probe gives low polarisation when free and higher when bound to something large.

Another series concerns the target T3, SmcHd(EQ);ScpA-N (Bacillus subtilis;Bacillus subtilis, UniProt P51834;P35154 1-219+=GPG+983-1186;1-86, E1118Q;internal_change|).
T3 sequence 1: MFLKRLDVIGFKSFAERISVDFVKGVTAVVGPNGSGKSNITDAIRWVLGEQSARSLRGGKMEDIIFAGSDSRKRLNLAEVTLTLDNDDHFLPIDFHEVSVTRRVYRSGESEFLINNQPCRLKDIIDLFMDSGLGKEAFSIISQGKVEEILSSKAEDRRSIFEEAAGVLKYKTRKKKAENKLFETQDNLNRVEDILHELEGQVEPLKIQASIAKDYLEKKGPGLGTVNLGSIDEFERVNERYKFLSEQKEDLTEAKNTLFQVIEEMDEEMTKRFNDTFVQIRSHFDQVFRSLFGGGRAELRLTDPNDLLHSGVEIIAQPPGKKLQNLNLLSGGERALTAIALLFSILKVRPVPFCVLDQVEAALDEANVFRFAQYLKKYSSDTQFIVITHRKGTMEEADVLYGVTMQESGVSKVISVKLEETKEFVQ
T3 sequence 2: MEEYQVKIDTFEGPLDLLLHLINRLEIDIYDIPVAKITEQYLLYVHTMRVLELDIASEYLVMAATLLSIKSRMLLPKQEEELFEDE
Nature of the series: fluorescence anisotropy.

For “Smc-HaloTag with J-Cys (S152C) (from UniProt P51834 1-1186) (natural protein)”, the fraction of Smc-HT in the cross-linked species in series [1] was 66%.

B1: 40 bp random sequence dsDNA (dsDNA)
DNA 1: TTAGTTGTTCGTAGTGCTCGTCTGGCTCTGGATTACCCGC
DNA 2: GCGGGTAATCCAGAGCCAGACGAGCACTACGAACAACTAA
With B1, the binding result in series [2] was “binds”; with SmcHd(EQ,3A-hd);ScpA-N, “no binding”; in the series with SmcHd(EQ);ScpA-N it was “binds”.
